The supplement of paper PMC12042874
± gives the uncertainty stated by the source.

experiment: amyloid nucleation score (Sup35N fusion, yeast selection) (log enrichment); library NNK3; higher = more nucleation; inactive = no reads after selection
Procedure, shortened: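 The nucleation score equals the log enrichment of output over input reads from DiMSum, centred on the mode score of non-aggregating sequences. It was computed only for sequences with 100 or more input reads. The reads came from Illumina sequencing of plasmid inserts from psi-negative yeast expressing Sup35N fused to peptides of 20 random codons, induced with 100 μM copper sulfate for 24 hours and grown 7 days at 30°C without adenine and uracil.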

| Substance | amyloid nucleation score |
| --- | --- |
| NFRCDICLPNLTRY | 0.313 ± 0.16 |
| ILTYINEMSHLPWV | inactive |
| MCSPYFMSTSNTIFQSTRYG | 1.12 ± 0.12 |
| APENKVYVRAQVKTACKFRG | 0.213 ± 0.81 |
| AKAEC | inactive |
| SSDIIHGNDVRSLVRRDRSL | inactive |
| CCIYQHIFYMRTYCIRT | inactive |
| LADWQMGVPRGLQVMVCTTL | inactive |
| QFDFVLPVGYVFGDGYVLWV | inactive |
| SECYKWRIFCNILNR | 2.36 ± 0.058 |
| GFTVMDPIV | inactive |
| FLKCGRSVPGV | inactive |
| PKFYH | inactive |
| FPENIVYGHEGLD | inactive |
| SNSDVN | inactive |
| SNWVISVLVRVNLAYAYLTD | inactive |
| HRIVSFYRNSWVPSIFVYED | inactive |
| FRAYWLYISALAHQIITMLK | inactive |
| YRPYC | inactive |
| AQGVTHLWEARNLWVWVEDQ | -0.316 ± 0.51 |
| GVEMHVFWDLA | inactive |
| RWVKSKFAV | inactive |
| NSDSFML | inactive |

| Substance | amyloid nucleation score |
| --- | --- |
| ECCDFSGCRCTSS | -0.498 ± 0.91 |
| YLCTGQAGCAYMPRS | inactive |
| NIKFIEHLLSYSSTPQPLTC | inactive |
| RDDGEALVTSARRVQTSYPA | -0.145 ± 0.93 |
| SWVTVYTVMRVWVTFGNRRR | inactive |
| IHMPHLGIGSKKRVSVRGDA | inactive |
| SLKARDVRSWSLSLLVQLAF | inactive |
| PTAVVVGYHSYVTFRAVKCV | inactive |
| DMMYVIRIFFLATEYSSLHP | inactive |
| ALNFPYSSRVFYFKDSAHAF | inactive |
| DVLLVIKVDYQVGLARVSRL | inactive |
| CRIPALTTTMLITNG | inactive |
| TNFSRYEDFVLLFCPILYAF | inactive |
| TRNMRWNFVDLARNRASLNS | inactive |
| GDVIMCFNFRTFLSTITPGS | 1.96 ± 0.092 |
| YNTRGQSSFSPCEIMWLVHI | inactive |
| IWILRKVVLRVVWMRYLGVK | inactive |
| RVQMVLLMNTSFLNVLIMCI | -0.375 ± 1 |
| FYYWVGFCAGKAEDFRDLLC | inactive |
| NPECVGDAWTVVVDYTSLWE | inactive |
| TCSMSTARSCSHKSNRVMHW | inactive |
| QIIYISSLFTYDSYYKFRLH | inactive |
| WEGRLDCFSMRWLQMLGSND | inactive |

| Substance | amyloid nucleation score |
| --- | --- |
| VRVMNGTRTSCLVR | -0.834 ± 1 |
| MQSNCTVMTNPNDKRMAAWW | inactive |
| PKSFWVLSPIDLVIVVQVRQ | inactive |
| HVFRLAWTMKLWEADTLS | inactive |
| LMSYSRFGCSDSYLNVDSSA | inactive |
| TWVTAGYCVNIYRTRSWMK | inactive |
| DENVRLTL | inactive |
| NSKGMLCWLTA | inactive |
| VLVEVEIYLILFIVYAW | inactive |
| SEVVIWFAWYMSLLNPGLYA | inactive |
| LRGGKVMITRFVSCSI | inactive |
| SVTFDAWYCWMN | inactive |
| KKSHCRTIYKSLV | inactive |
| FYSMSLVSFCFYGDLYLDNG | 2.76 ± 0.077 |
| LVVGVFKGSRSYVFK | inactive |
| ITRWHGSLHSDYGIGICFSI | inactive |
| TCACIWGVSVWCYRSQVFAQ | -0.455 ± 0.52 |
| MLEGQSSCRVITDLARL | inactive |
| KCYNKVWELMLAYG | inactive |
| QYICHDNCRCCQRNEKFRRK | inactive |
| FCLNYDGGWWCRMSCVYNQG | inactive |
| NLNKNRLLMTMHWNRVFLMS | inactive |
| LPGCVSEFG | inactive |

| Substance | amyloid nucleation score |
| --- | --- |
| KCCYRMVVDTV | inactive |
| NVSFCDDASARANVYHLGKS | inactive |
| HGFSVTILTRVLTVGNSRRS | inactive |
| VGGLSSDPTADISFVVVFQD | 0.089 ± 0.71 |
| RSMHLTWYW | 1.4 ± 0.11 |
| CKRNKDGKWRRKTWRLVQFY | -1 ± 1.2 |
| NQEVSTGNILGLLAVTSCRD | inactive |
| SHKFRMITIGPSSMIGALTC | inactive |
| HRKIRFGYSL | inactive |
| VHKYSVDFGKGW | inactive |
| GTTRATPSGPLCMNGKENVV | inactive |
| LKLRSRITNINILDVRYWIC | inactive |
| MRWCNQDQL | inactive |
| YGSIV | inactive |
| VYLDYGGLHLRVLHTCRFYC | inactive |
| VRNVKSNANCCFN | inactive |
| AFVDAQQVNGLYGWYDSKCD | inactive |
| TWRNLILRFGCGGFSKTTFK | inactive |
| NEIQVKQRYVPPVSVSFVWW | 1.59 ± 0.086 |
| DVYKNPLSEQPSRYCTE | inactive |
| WRAAIEDASLFIERIHNNSS | inactive |
| LARLYYHFLEVHYVLCIC | inactive |
| ILVWNLYLT | 2.54 ± 0.053 |

| Substance | amyloid nucleation score |
| --- | --- |
| RFWKTTPNGQIRVSSVMRCM | inactive |
| TYYSLVF | inactive |
| YLYNRSMRVPLMSRKLFGGD | inactive |
| IRRWPWYIMCYVLLQSFLSL | inactive |
| LITGLDLPGIWHTVYSYYSV | inactive |
| YCVWLVSKTISWFQTVFI | inactive |
| TNNCCNLLCMIQNPESCSFA | 3.12 ± 0.065 |
| GDSLGGTYYLLRSFFCCRDL | inactive |
| PIWTHFRGPCGVEAIRETRV | inactive |
| PRCISSPRSPSLNVWVLKSE | inactive |
| FTMMCVYMSWQSGSQRTVTI | inactive |
| YSSGSFCLFKWSIHR | 1.65 ± 0.065 |
| AVHFGLYFLMRVITMC | inactive |
| TSEVVQ | inactive |
| CCYATSLYINDDATIIVNLM | 2.74 ± 0.072 |
| EKLIVNDYCRRSGPDMVAVD | inactive |
| GILCVEMSVTSLGLIIETYF | inactive |
| GFYLVKSSMSWVANWCGKHT | inactive |
| YHSLYTAPDEGLFYRNRRKF | inactive |
| TKRKCYPRLVRPGRLKGPSG | inactive |
| LAFFTHNIYF | 1.97 ± 0.1 |
| EFYFATRMMF | 1.09 ± 0.092 |
| SLDMYPVVKKCYTYFFFQYF | 1.16 ± 0.11 |

| Substance | amyloid nucleation score |
| --- | --- |
| KVYKLGVSRRSVKAT | inactive |
| CHNVLWRLKRFHASRCTGDM | inactive |
| LVLMVSQGSYFTTI | -0.474 ± 0.57 |
| VQSTVVQVGDWY | inactive |
| ISESKLMLTRWDGVFVTIWD | inactive |
| GMIASDVFAHFKSGQTMGVW | inactive |
| WYSYPNFG | inactive |
| VKCVYERRDGRLWLMILAMG | -0.481 ± 0.52 |
| VFNWYEVVFTFWCNMTANGM | 1.49 ± 0.069 |
| EMSWRSVKSSHYKQMEFSGR | inactive |
| RSVVRFWFFLINRHVYELSL | inactive |
| SAYTNANGLNVSLFLMHHAC | inactive |
| MYQLLMFAYVT | inactive |
| DKEDHLSVFWAV | inactive |
| STSVSYEWPDLGACIGGDFG | inactive |
| SVWRECNGKFVSFASHFADY | inactive |
| LFCVPWVVISPHHSIHRIWV | inactive |
| WMMMNFHLSMQD | 1.6 ± 0.087 |
| LSDDMPKV | inactive |
| LRCWYFLNMMMPYPPPSIKW | inactive |
| MSYMMSSTPSVFMACLGDS | inactive |
| TRLFRDNFHFLGRSLSATYV | inactive |
| WVVRYMDYSLMD | inactive |

| Substance | amyloid nucleation score |
| --- | --- |
| RLVYPSVSSLKPIRSCWLG | inactive |
| QTRVTVYSWVPRDYFSQHED | inactive |
| VRISHYA | inactive |
| ITALDWY | inactive |
| ISIFRRTGFAWFWENV | inactive |
| RRYVDRYEAIWWCFCIRKLF | inactive |
| SVSRRGKDR | -0.237 ± 1.5 |
| NRIFSLTM | inactive |
| WSIMSLNFRVDTHYSVHRYV | 1.95 ± 0.099 |
| RTAWHMCLFCLNVTNLSWLM | 2.15 ± 0.052 |
| RWCFCWICHYLDVLCHYCLH | inactive |
| SDSSYSYTVF | inactive |
| SFSVPVELSEP | inactive |
| FNVGFLKWCFSMVGQGVDLH | inactive |
| VIAVRYYRLLDRMNVSGSVF | inactive |
| YKSLIVNANYCDLGFLRGWC | 2.6 ± 0.064 |
| IYNSAFIGFSRLKVCVYALF | 0.471 ± 0.17 |
| GVFGESS | inactive |
| RSFHYRIACESNLAVEVHFR | 1.74 ± 0.066 |
| TNFPLALSSRIPSASQISMQ | -0.547 ± 1.5 |
